In patent publication US20240117010A1 (NAVIGO PROTEINS, published 2024):

Columns and labels:
[1] = biological target: SARS-CoV2 S1 protein (S1 domain of the spike protein) (SARS-Cov-2, UniProt P0DTC2 16-685)
[2] = biological target: SARS-CoV2 RBD (receptor binding domain of the spike protein) (SARS-Cov-2, UniProt P0DTC2 319-541)

Row | Binder | Kd [1] [nM] | Kd [2] [nM]
1 | 212434 (SEQ ID NO: 1) (designed binder) NAAVLDIAQHSATEEIWWLPNLTKQQKVWFIMSLTQDPSVSKEVLGEAQKLNDSQAPK | 3.8 | 10.2
2 | 212522 (SEQ ID NO: 19) (designed binder) IAAKFDEAQQAAFYEILHLPNLTELQRNWFIQLLRDDPSVSLQVLGHAQYLNDSQAPKIAAKFDEAQQYAFYQILHLHNLTEEQRNAFIQSLRDDPSVSHEVLGEAKKLNESQAPK | 24.1 | 27.1
